Test system: MS2 coat protein
Test: apparent KD of MS2 coat protein; designed switch direction (-1 OFF switch, 1 ON switch): -1; higher = weaker reporter binding
Method in brief: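 SNAP-549-labelled MS2 coat protein was titrated, doubling from 0.7 or 1.5 nM to 3 µM, over designed RNA switches transcribed on Illumina chips by stalled E. coli RNA polymerase. Runs were done without input, with 200 uM small-molecule ligand, or with an oligonucleotide input. Apparent KD is the per-design median over clusters of curve-fitted normalised fluorescence.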

[1] = Eterna round: R95, input ligand: FMN 200 uM
[2] = Eterna round: R95, input ligand: microRNA oligo, concentration not stated
[3] = Eterna round: R95, input ligand: none
[4] = input ligand: microRNA oligo, concentration not stated

Sequence | apparent KD of MS2 coat protein [1] | apparent KD of MS2 coat protein [2] | apparent KD of MS2 coat protein [3] | apparent KD of MS2 coat protein (input ligand: FMN 200 uM) | apparent KD of MS2 coat protein (input ligand: none) | apparent KD of MS2 coat protein [4]
AGAUGGCGAGGAUAUACAUGAGGAUCACCCAUGUGAGAAGAAAGAGUGAGGAAGAAAAGUAGAAGGCGCUGUCA [Mat - Exclusion 3 - Mod of Salish D19] (puzzle: Exclusion 3) | 209 nM | 95.4 nM | 76.1 nM |  |  | 
AGAUGUAGAUACCGAUCCUACAUGAGGAUCACCCAUGUAGCUAGACGUGCACGCGAAGCUCGUCAGACUACCAGAAG [salish99_TOv1_r3_084] (puzzle: Sensor v3, turn-off variant 1) | 172 nM | 144 nM | 261 nM |  |  | 
AGAUUACGAGGAUAUCGAGUUUAGUACAUGAGGAUCACCCAUGUUAUCCAGGUCUCGUUUCGAGAAGGCGUGAUUC [LRO-Ex5-08] (puzzle: Exclusion 5) |  | 200 nM |  |  |  | 
AGCAACGUACAGGAUAUACUUCACCUUCUAGAAGUAGAAGGGUGCACAUGAGGAUCACCCAUGUUAGCGAGCAG [Eternabot (Original) Solution 25] (Eterna round: R97, puzzle: Exclusion 6) |  |  |  | 18.4 nM | 15.9 nM | 
AGCACGACUGCAGGAUAUUCCGCAGUUGAUGCGGGAGAAGGGCAGGGCAGCACUUGAGGAUCACCCAAGUGACCGUGUUGCCAA [Mutated MS2 EX1.7] (Eterna round: R96, puzzle: Exclusion NG 1) |  |  |  | 35.8 nM | 25.1 nM | 17.2 nM
AGCAGACGAGGAUAUAAACGAUAUAACAUGAGGAUCACCCAUGUACGAUCGAUAGAUCGUUUAGAAGGCGUCUGCU [E5/9-A1] (Eterna round: R97, puzzle: Exclusion 5) |  |  |  | 14.5 nM | 13.1 nM | 
AGCAGACGAGGAUAUGAUUAAUAAUACAUGAGGAUCACCCAUGUAAUACUGAUCUAUGGAUCAGAAGGCGUCUGCU [E5/6-A2] (Eterna round: R97, puzzle: Exclusion 5) |  |  |  | 12 nM | 16.6 nM | 
AGCAGGCAUUCCUCUGGACACAUGAGGAUCACCCAUGUUCGUCGCUCGCAGCGUUGAGGCAUUACCCUUAACGCUUU [Eternabot (Original) Solution 29] (Eterna round: R97, puzzle: Sensor, turn-off variant 1) |  |  |  | 52.5 nM | 48.8 nM | 
AGCAUGUGAGGAUAUGUACCUGAGUGCUUUGCGCUCAGGAAACAGAAGGCACAUGAGGAUCACCCAUGUGAAAA [jl-ex4-4.45 ViennaUCT mod] (Eterna round: R97, puzzle: Exclusion 4) |  |  |  | 68.7 nM | 281 nM | 
AGCCAAGCAGGAUAUACCCGGGAUAACAUGAGGAUCACCCAUGUGACCGAUUGAUGUCCUGUAGAAGGGCUUGGGA [Mod of ViennaUCT 21 - Jieux - Exclusion 5] (Eterna round: R97, puzzle: Exclusion 5) |  |  |  | 78.1 nM | 28.3 nM | 
AGCCCUUGUGUCAGGAUAUGCAUCCUUAAUGGACGGCAGAAGGGACAUGAGGAUCACCCAUGUAAAUAGAAAAU [Sodixeti] (puzzle: Brourd's mod of Exclusion 4) | 30.1 nM | 111 nM | 177 nM |  |  | 
AGCCUACAUGAGGAUCACCCAUGUCAGGAUAUCUCGCGACAUGUCAAGUUCACGUUGCAGAGAAGGGACUCGGG [Ononxe] (Eterna round: R96, puzzle: Exclusion 1) |  |  |  | 108 nM | 54.1 nM | 41 nM
AGCCUACAUGAGGAUCACCCAUGUCAGGAUAUCUCGCGACAUGUCAAGUUCACGUUGCAGAGAAGGGACUCGGG [Ononxe] (puzzle: Exclusion 1) |  | 47.8 nM |  |  |  | 
AGCGAUUCAGGAUAUACGGGUGGGCUGGAUCUUGGAGGAGUACAUGAGGAUCACCCAUGUAGAAGGGAAUUUUC [Eternabot (L2) Solution 35] (Eterna round: R97, puzzle: Exclusion 2) |  |  |  | 95.5 nM | 40.2 nM | 
AGCGCCAUCGUGAGAUGGCGUAUUACAUGAGGAUCACCCAUGUAGGAUAUCGAUUGCUUUGCAGUCGAGAAGGGCAUGUUCUAG [JL ENG3 3.80 Mod G] (Eterna round: R96, puzzle: Exclusion NG 3) |  |  |  | 82.4 nM | 73.6 nM | 35.8 nM
AGCUAGUCAGGAUAUACAAACAUGUCAAAAGACGUGAAGGGACAUGAGGAUCACCCAUGUAGAAGGGACUAGCA [Web Mod 74% 2] (Eterna round: R96, puzzle: Exclusion 2) |  |  |  | 304 nM | 49.2 nM | 43.1 nM
AGCUAGUCAGGAUAUUCUAAUAAUUACAUGAGGAUCACCCAUGUGCAUAGACAAGGGUGUGAAGAAGGGACUAGCG [Omei Ex5 A7] (Eterna round: R97, puzzle: Exclusion 5) |  |  |  | 797 nM | 2530 nM | 

— the supplement of paper PMC9170038
